Assay results from the DeepSol protein solubility set.

assay: soluble on expression in E. coli; label from the status in PepcDB or PDB records

Soluble on expression in E. coli, not soluble:
MGSDKIHHHHHHMPASDVIIAGSGPAGAMLARDLTRAGASVRILERGGETPASAPNLWKLWRRKEALHVAPGVALLRGTRVGGGSTVFYHTAISPPLEMFSHHGVEMAQDLAAVLAELPHQPLQAPLLGPTAQRIIDAARSLGLPWQTLPKMIDQELCGHGDCPPAAFWSAASLLAQAMQLGAELETGIQVNRVLFQNGRAVGVEALQKGQLRRFMGGTVILSAGGVASPVILQRSGIREAGRGFFCDPLRVGVAIGRGNGLQEAEMPMTAGFVDREAGYMLTDMTVPPNFYRAFAWAAGRVDMLAHYRHSMMIMVKIRDEISGEVNANGRVWRHFSAAEKNRMRNGMGLAADILRAAGGRRIFFSPWLAAHPGGSVRLGELLDERLSCCTPNLHVCDASVIPEPWGLPPTLTVLSLAKYLGRILLG
MGSDKIHHHHHHMPDNANIAASHTQAHGSSYDDKPTQPQCDSIKLNEIGPNLLEPRAIEPSATKPNAIKHESVITKQKQKVIFIGLPRTGTTSVSVALLEQGLKVAHMAFTKEAFMQADAISDAPCFSDFKQLDELFPKAKFVYLDRELDSWVPSMQMLLSRMLPHLDAKIGRFHPIMKRSFRHTFGVGVVENPQDEQHLIDCYQHHKTEVFNYFAGRQDLLSIDVSQQGALGQLLAFMELTSAENHNLSFPKLNVGRNVASWDEYKHPNKISANAAGPEKRKYFDYKV
MGSDKIHHHHHHMPDTRITEDFLGFGLGLRTDHFEYILQHQPDIDWFEVLSENYLVAGGKPRYYLEAIAEQYPVVMHGVSMSIGSSDPLDMDYLKALKKLSNDIQPKWISDHICWTSIHGVNSHDLLPLPYTEETVNHVAQRVRQVQDVLGRRILLENVSSYLSYQDSTMDEWDFLSQVAEAADCLVLLDINNIYVSARNHHFNPLDYLKKIDPRRVQQFHLAGHSDFGDYVIDTHDHDVPPSVWTLYQAALERFGAVSTMIERDANIPEFPALYNELLEAKHIAQLTLPDDPALARSQFGSRSLDDLSKFINTNNASSQKVRA
MGSDKIHHHHHHMPEHLDFTLFQPKGRLASIVQGVWSTSVAIHSSNNIKRWLHSDACSGFLFNLSEPIQLNDLSISTGGVLLPVSKQAQTITLPPGAVVVGVRFHPAMSFAILGNIYQQATQIKKSETNILSLQTLGNQLEQAKGHYARIVVFYRWLNTMLLTIDNIPAPLMSALKALEDKKSPGELSNHVLLSQRQIERHFQKWLNMTPKYYQRISRVKNALKVLKLHPETALADLALSIGFTDQAHMTREFKYIARITPKHYAQKVIDDKSNALSIIKPKVG
MGSDKIHHHHHHMPENYTPAAAATGTWTEEEIRHQPRAWIRSLTNIDALRSALNNFLEPLLRKENLRIILTGAGTSAFIGDIIAPWLASHTGKNFSAVPTTDLVTNPMDYLNPAHPLLLISFGRSGNSPESVAAVELANQFVPECYHLPITCNEAGALYQNAINSDNAFALLMPAETHDRGFAMTSSITTMMASCLAVFAPETINSQTFRDVADRCQAILTSLGDFSEGVFGYAPWKRIVYLGSGGLQGAARESALKVLELTAGKLAAFYDSPTGFRHGPKSLVDDETLVVVFVSSHPYTRQYDLDLLAELRRDNQAMRVIAIAAESSDIVAAGPHIILPPSRHFIDVEQAFCFLMYAQTFALMQSLHMGNTPDTPSASGTVNRVVQGVIIHPWQA
MGSDKIHHHHHHMPESAEAQVKEALLALLKDRDIQHITMKEIAEKAKVSRGSLYLYYEDKFSIIEDVIEDMKEGLGKALFDAFSHMDTLHLNKKRQTVHPTLSFVHEHRSFFSVMMNRGHFHRFFKDVFQQDVLLAPIHVNLTPIERDIYGHYRALYTYAIILYWLNEDAAASPEAISQKVWELVSQKRFYWLFGKAVPGEREKEKQIDRRVVRTREALQKAFLDVLAEKQDYAGITISDITRKSNIRRATFYDHYANKEELLQTMIQRSCAEIIDHLTIASSPNEFSLKEAEKALAILLSALSNMPIVHFLNREWGVPHVIPDMFKALESFYLHQQTDIHAEKKLYAHYVSAMIIGLLLYRLDEGKAHPPEVLAREFLQFLDVKKYKVVLL
MGSDKIHHHHHHMPGPYNEMDVAISYIHNHLYEPLSLSHIASYVGYSSYHFSRLFKEKTGLSPLYYVSSLRLQKAKELLLNTNLTVRDIGLEIGQQSLGTFTTRFTKCVGMSPSHFRESMNQVNHSLHSLQMLSDWRTSLQSIHPFSTVTGTIDSEAPLEGFILIGLFSKPIPEGLPLYGNLLSSTGAFSFTGVTPGIYYLMATSISWSMQAKDILLPYTTLRGRIKEPIIVTSSPSILEYSLTLHTPRLDDPPILISLPLLMKNFLKARIAT
MGSDKIHHHHHHMPLLEIKNLTKIFTIGSIFSRTRIVAVDNVNFDINEAEIFTLAGESGCGKTTTAKIILGFEEPTSGEIIYKGRKIDRVHQNEKERRELLKEIQAVFQNPFSTFNPLRKVDRYFYETLFNLGIADTKKKAEEIIKEKLSAVGISFEEFSEKYPSEFSGGQLQRISIARALLTNPSLLVADEPVSMVDASLRMSIVNLFKDLKEQYGVSVLYITHDLTTAYYVSDRIAVMFRGNIVELGPAEKVLMEPKHPYTQLLRESVPEPDPKKKWDIRIKLSETEQAEYLRQGCKFAGRCPKAMDICRKEPPPYFEVDGVQVKCWLYR
MGSDKIHHHHHHMPLYQPLTPRLFMRQWRASDLPCFARMNADRRVMRFFPASLTRRQSDAMAERCSMLIDSQGWGFWAVEERSSGLFAGMVGLHRPSGDLPFAPCVEVGWRLDPDHWGKGYATEAAAAALDIAFNTLGLHEVVAFTAVLNTPSQAVMRRLGMRHAMDFEHPAVPADSPLRAHCLYRTDKEEHQRRHGL
MGSDKIHHHHHHMPNRDSEKLITDGYTTTLLGDELMVCENMKHIRVTSVPSYTEVGMIILCLRGTAKICIFDNIHILAKNELAVILPGQLVSITELSPDFLCNIVVLSRALFDDTLSGFSRFSPLFFVYMRSHYWYELTGEEIERFKLFYGSLSQRAKDPTHFFRRESVLLLLRIFYLDIYNEYYSKSHLMKGGSDMGKSKLAHDFFCLIMQHYREHKDVAFYADKLCITSKYLSMVIKEASGKTAKDWIVEYAILEIKAMLKNSTMNIQEISIKTNFANQSSLGRFFRKHTGMTLTEYRMHR
MGSDKIHHHHHHMPNVNLDALIPREDFEVIENNSRASSFNQNVSVKDLEKGEFFYAGLRKPDFQRETSDWTDEQLCEFIQSFIDGDLIPAVILWNSGPYNFVIDGAHRLGALISWINDDYGDGHISQKFFNNEIDDEQKDIANKTRERIKNTVKPYSDYKKVILDSSDCDRGILEKALSLGRTSIQLQWVTGGAEKAELSFFKINQKASKINDTEIELLKSRRKAFAIASRAIIRAGTGHQYWSKFDNDVMQNIETMAKEIHSLIFLPKVSGAVRTLDLPLVKKHNSPQTNSFIFDLVKKCNNVPVNTIKIDDDDNGKLTVEYLKNVRKFLRRINSSHPSSLGLHPLVYFYNKRGNHIYSAILAWVDTIVTIEKTKVSLSSFLFIRSDLEKFLIKYKHFISGVNAKYGSGVKSYKHILKINSIIINQLQKRESEKYIVDSILNEYGFLSESDDVNVTSARFSTDIKSQIYIQETLPKTSTCSHCHGFIHQNSISFDHIVRKQDGGKGNVGNGALMHPYCNTSEKN
MGSDKIHHHHHHMPRNLPPLYALRAFEAAARHTSFTRAAEELSITQSAVSRHIRTLEEHFACRLFQRNGRNLQLTESARTLLPGVRDGFLALERACSTLQTDEGVLRMKAPSTLTMRWLLARLSRFRHLQVGNEVQLTSAWMDIDAVDFTREPFDCAILLSQGHFPSDWEATLLFAELLIPVGAPTLSQDPPWDVERLAKAELLHPTPDRRDWRTWLNRMGLADQVSLKGGQVFDTLELGMIAAARGYGVSMGDLLMVAEDLAQSRLSLPWRTAVFSGENYYLVWPRTRPGAERLRRLSDFLQAEVKAMKLPLVEVLR
MGSDKIHHHHHHMPSDASRRLYERLGIPLLPMDSPFGPEYPIGNKFAALALGPAVGHTLFLDSDMICVDAFEADMLCRFDAALKPADMALVAKQNDYWERIYAHAGSALPGDRVVTTCSGEAMPAYYNAGFILVRDARRFAEVWYRLAERVHADPLITNKMPWLDQLTLPVALHALNYKTRALSERFNYPLHIKPLSAASLPPFFCHYHSLDTLVSERSLWAELDELAKRFPELREVLALDANWKKAILAPAPRLAFSEGDSTGTVEAGQDLVITGIPRSGTSHLCRLLSQQPDTVVLNEPPQVFEALKLSPLPWGLPRYYAELRRDILAGRPVPNKHVNGRLVDDTARGNDQSSDYFAEVRGASFHLGTKNTLAYIARLPLIRKVMPTALLIATIRHPYDTLNSWANTFEHLRQAAVERQPFGCPDDLALTGWQRKALLAIADTDHLAVRRALWWRYLALQLEDAGDYVQLLRYEDFVEAPQTTLAALRNNRPLPFDEPAVWSKGLAPDEQELVANIVCDVAERFHYVL
MGSDKIHHHHHHMPTMIPAASRAMAVFEVFAREKRELSNSDMARLLSLPESSTSDLLHTLHSLGYLMRTTRTRRFYPTGRLSEIARQIAENDPLTTVAQEAIEQVSARTNESVFFGVLDGTAVKVMAVQASRLPLRYIIEVGYRAALHASALGKGLLGLLPPEEARETLAKSSLRAVTAHTVVDIDTLMAQVAKGRKRGWYEAHEEGSEGVHGLAVTGWLGGQAAGISLAGPAERMKKNHDAYLAALIEVRDALMSEE
MGSDKIHHHHHHMPTVERHIRGKWACDSCETLIQAPVPPQVIDKGIPTAGLLAQVLVAKYADHLPLYRQERMFGRAGLEIPRSTLAEWVGACGVQLQPLVDALRNTLLEHSVLHADETPVSMLAPGKKKTHKAYVWAYCTTPFADLKAAIYDFAPSRAGEHARTFLGDWRGKLVCDDYAGYKAGFGNGITEIGCMAHARRKFYDLHEANKSELAAKALEYIGGLYEIERETKDLPPDMRREIRQTKAKPLADALHQWMLAHRQKVPDGSGTAKALDYSLKRWEALTRYLDDGAVPIDNNWVENQIRPWALGRSNWLFAGSLRSGQRAAAVMTLIQSAKLNRHDPYAYLKDVLTRLPTQKNNAIDELLPHNWKPAIPNKV
MGSDKIHHHHHHMPYKTLKTIDYEAHHDSKTVGTEYERRIHNYGIFKSGLYPFLIDHQELSQDRRELFITPLREIAIACERIEYNSAELKSKLKELPPIAEELYLKKSLINEITTSNRLSGIAVRRTEVKAALDSINKDNQEQVRFAPMAKMYNKILEDDFQRIESFVDLRKVYNQLLFGLIEKEQMPDGAFFRNRPVSIKNDQQKIIFQLPGNENDLEQRLSNWLKFISNKNIPFMIKGLLAHGYFENIHPFYDGNGRTSRYILSLYLARKLDLVTGLNVAQAIYENRESYEKALLALGDQGNFAEGSFFINDSLSMIENRQRKIIEDLDVNIKQLSRTNKKIQQIYQINSPEYFVLNLLLQSKIFTDNQADGLLDREIVEISENSKHSKRAINLAIKSLEQKKQITTLKKNPFQHSIDIN
MGSDKIHHHHHHMQDCDVRIFYIFKSLYDSGSATFVSQQHSVSPSKVSRYIAEMREVYNDSLFIRRKTHFVPTKKAREIYPKICEIIELIEGLSANRHELEVKKECVIAVPATLCVGLPEHLNRVIKQEGLDISLKVMSSHREICTKVINGEICIAITNRACTQTMDCNPKHSNLLHVEPISVGEHVYVVSAATGAIWQEKISLDNIAKYPFVVTQVSGFNDEKDPFEVYCEQRGLALNVFLKTQNLASMIEALMSENTISFIGPNSAAAFIAKVPSLRVEKLENCEYQRLHEAMHKPTYSMIYLKRNIDVIPPLIKSEVLRFISDSVCDF
MGSDKIHHHHHHMQDLLSQDEIDALLHGVDDGDIDTYEETDDTGVKNYDLASQDRIVRGRMPTLEMINERFARYTRISLFNLLRRNADVSTGGVQIMKFGEYIHTLYVPTSLNLCKVRPLRGTSLFVLDAKLVFKLVDNFFGGEGRHAKIEGREFTPTETRIVQMVLNQVFHDMKEAWHAVLQVEFEYLSSEVNPAMANIVSPSEVVVVSTFHIELDGGGGELHFALPYSMIEPIRDVLDAGVQSDIDDVDERWVNALQEDIKEVNVPINTTVCRRRISLRDIARMKAGDVIPVEIPEHLTVTANGIPIYKATLGTRDGKLALRIHDRAKLPKVKKQLKVGRNG
